B1: TRIM39 (parent)
chain: ERDFPCPVCRKTSRYRSLRPNRQL
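Also: lentivirally expressed fusions sorted by FACS into six bins by GFP to DsRed ratio, PSI derived from sequencing read proportions per bin multiplied by bin number.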

Variants of: B1
Assay: protein stability index of a GFP-peptide fusion (GPS, HEK-293T) (PSI 1-6); higher = more stable
Conditions: c terminus: a fixed tail appended
ERDFPCPVCRKTDRYRSLRPNRQL [S13D] gave a protein stability index of 2.56. Work on ERDFPCPVCRKTKRYRSLRPNRQL [S13K] yielded a protein stability index of 1.77. Work on ERDFPCPVCRKTPRYRSLRPNRQL [S13P] yielded a protein stability index of 2.74. For ERDFPCPVCRKTMRYRSLRPNRQL [S13M], the protein stability index was 2.61. ERDFPCPVCRKTERYRSLRPNRQL [S13E] gave a protein stability index of 2.21. ERDFPCPVCRKTFRYRSLRPNRQL [S13F] gave a protein stability index of 2.46. With ERDFPCPVCRKTARYRSLRPNRQL [S13A] the protein stability index was 2.01. With ERDFPCPVCRKTLRYRSLRPNRQL [S13L] the protein stability index was 2.4. For ERDFPCPVCRKTRRYRSLRPNRQL [S13R], the protein stability index was 2.49. ERDFPCPVCRKTQRYRSLRPNRQL [S13Q] gave a protein stability index of 2.1. Variant ERDFPCPVCRKTCRYRSLRPNRQL [S13C] has a protein stability index of 2.82. ERDFPCPVCRKTVRYRSLRPNRQL [S13V] gave a protein stability index of 2.1. Variant ERDFPCPVCRKTIRYRSLRPNRQL [S13I] has a protein stability index of 2.4. ERDFPCPVCRKTGRYRSLRPNRQL [S13G] showed a protein stability index of 2.52. Work on ERDFPCPVCRKTHRYRSLRPNRQL [S13H] yielded a protein stability index of 2.82. Variant ERDFPCPVCRKTNRYRSLRPNRQL [S13N] has a protein stability index of 2.12. ERDFPCPVCRKTWRYRSLRPNRQL [S13W] gave a protein stability index of 2.39. ERDFPCPVCRKTSVYRSLRPNRQL [R14V] showed a protein stability index of 1.39. Variant ERDFPCPVCRKTSQYRSLRPNRQL [R14Q] has a protein stability index of 2. In the case of ERDFPCPVCRKTSPYRSLRPNRQL [R14P], the protein stability index is reported as 1.82. For ERDFPCPVCRKTSFYRSLRPNRQL [R14F], the protein stability index was 1.96. Work on ERDFPCPVCRKTSKYRSLRPNRQL [R14K] yielded a protein stability index of 1.9. With ERDFPCPVCRKTSLYRSLRPNRQL [R14L] the protein stability index was 2.09. ERDFPCPVCRKTSAYRSLRPNRQL [R14A] gave a protein stability index of 2.46. ERDFPCPVCRKTSCYRSLRPNRQL [R14C] gave a protein stability index of 2.85. With ERDFPCPVCRKTSDYRSLRPNRQL [R14D] the protein stability index was 2.08. ERDFPCPVCRKTSSYRSLRPNRQL [R14S] showed a protein stability index of 1.66. In the case of ERDFPCPVCRKTSEYRSLRPNRQL [R14E], the protein stability index is reported as 3.71. In the case of ERDFPCPVCRKTSTYRSLRPNRQL [R14T], the protein stability index is reported as 1.58. For ERDFPCPVCRKTSGYRSLRPNRQL [R14G], the protein stability index was 2.13. ERDFPCPVCRKTSIYRSLRPNRQL [R14I] showed a protein stability index of 2.28. In the case of ERDFPCPVCRKTSHYRSLRPNRQL [R14H], the protein stability index is reported as 2.15. For ERDFPCPVCRKTSMYRSLRPNRQL [R14M], the protein stability index was 1.92. In the case of ERDFPCPVCRKTSYYRSLRPNRQL [R14Y], the protein stability index is reported as 2.42. In the case of ERDFPCPVCRKTSNYRSLRPNRQL [R14N], the protein stability index is reported as 1.67. Work on ERDFPCPVCRKTSRYRSLSPNRQL [R19S] yielded a protein stability index of 2.58. In the case of ERDFPCPVCRKTSRYRSLDPNRQL [R19D], the protein stability index is reported as 1.54. ERDFPCPVCRKTSRYRSLNPNRQL [R19N] showed a protein stability index of 1.78. In the case of ERDFPCPVCRKTSRYRSLGPNRQL [R19G], the protein stability index is reported as 1.89. Work on ERDFPCPVCRKTSRYRSLEPNRQL [R19E] yielded a protein stability index of 1.59. Variant ERDFPCPVCRKTSRYRSLVPNRQL [R19V] has a protein stability index of 1.85. With ERDFPCPVCRKTSRYRSLQPNRQL [R19Q] the protein stability index was 1.91. ERDFPCPVCRKTSRYRSLTPNRQL [R19T] gave a protein stability index of 1.75. For ERDFPCPVCRKTSRYRSLIPNRQL [R19I], the protein stability index was 2.1. ERDFPCPVCRKTSRYRSLWPNRQL [R19W] showed a protein stability index of 2.1. In the case of ERDFPCPVCRKTSRYRSLMPNRQL [R19M], the protein stability index is reported as 1.29. In the case of ERDFPCPVCRKTSRYRSLLPNRQL [R19L], the protein stability index is reported as 2. ERDFPCPVCRKTSRYRSLPPNRQL [R19P] gave a protein stability index of 1.98. Work on ERDFPCPVCRKTSRYRSLYPNRQL [R19Y] yielded a protein stability index of 2.12. ERDFPCPVCRKTSRYRSLAPNRQL [R19A] gave a protein stability index of 1.63. ERDFPCPVCRKTSRYRSLKPNRQL [R19K] gave a protein stability index of 1.82. In the case of ERDFPCPVCRKTSRYRSLHPNRQL [R19H], the protein stability index is reported as 2.08. Variant ERDFPCPVCRKTSRYLSLRPNRQL [R16L] has a protein stability index of 1.53. In the case of ERDFPCPVCRKTSRYASLRPNRQL [R16A], the protein stability index is reported as 1.43. ERDFPCPVCRKTSRYGSLRPNRQL [R16G] gave a protein stability index of 1.29. With ERDFPCPVCRKTSRYMSLRPNRQL [R16M] the protein stability index was 1.03. ERDFPCPVCRKTSRYVSLRPNRQL [R16V] gave a protein stability index of 2.04. In the case of ERDFPCPVCRKTSRYKSLRPNRQL [R16K], the protein stability index is reported as 2.14. For ERDFPCPVCRKTSRYHSLRPNRQL [R16H], the protein stability index was 2.29. In the case of ERDFPCPVCRKTSRYYSLRPNRQL [R16Y], the protein stability index is reported as 1.74. Variant ERDFPCPVCRKTSRYNSLRPNRQL [R16N] has a protein stability index of 2.23. With ERDFPCPVCRKTSRYQSLRPNRQL [R16Q] the protein stability index was 1.91. In the case of ERDFPCPVCRKTSRYSSLRPNRQL [R16S], the protein stability index is reported as 2.86. With ERDFPCPVCRKTSRYESLRPNRQL [R16E] the protein stability index was 2.54. With ERDFPCPVCRKTSRYCSLRPNRQL [R16C] the protein stability index was 2.47. Work on ERDFPCPVCRKTSRYPSLRPNRQL [R16P] yielded a protein stability index of 2.1. For ERDFPCPVCRKTSRYFSLRPNRQL [R16F], the protein stability index was 2.57. For ERDFPCPVCRKTSRYISLRPNRQL [R16I], the protein stability index was 1.24. In the case of ERDFPCPVCRKTSRYRVLRPNRQL [S17V], the protein stability index is reported as 2.24. For ERDFPCPVCRKTSRYRHLRPNRQL [S17H], the protein stability index was 1.89. ERDFPCPVCRKTSRYRQLRPNRQL [S17Q] showed a protein stability index of 1.86. For ERDFPCPVCRKTSRYRPLRPNRQL [S17P], the protein stability index was 2.71. ERDFPCPVCRKTSRYRWLRPNRQL [S17W] showed a protein stability index of 2.31. For ERDFPCPVCRKTSRYRKLRPNRQL [S17K], the protein stability index was 2.25. ERDFPCPVCRKTSRYRGLRPNRQL [S17G] gave a protein stability index of 2.15. Work on ERDFPCPVCRKTSRYRNLRPNRQL [S17N] yielded a protein stability index of 2.22. ERDFPCPVCRKTSRYRDLRPNRQL [S17D] gave a protein stability index of 1.85. In the case of ERDFPCPVCRKTSRYRELRPNRQL [S17E], the protein stability index is reported as 2.13. ERDFPCPVCRKTSRYRRLRPNRQL [S17R] showed a protein stability index of 2.31. ERDFPCPVCRKTSRYRYLRPNRQL [S17Y] showed a protein stability index of 1.44. Variant ERDFPCPVCRKTSRYRLLRPNRQL [S17L] has a protein stability index of 1.69. In the case of ERDFPCPVCRKTSRYRTLRPNRQL [S17T], the protein stability index is reported as 1.45. Variant ERDFPCPVCRKTSRYRCLRPNRQL [S17C] has a protein stability index of 1.71. Work on ERDFPCPVCRKTSRYRSDRPNRQL [L18D] yielded a protein stability index of 2.71. ERDFPCPVCRKTSRYRSIRPNRQL [L18I] gave a protein stability index of 1.81. Work on ERDFPCPVCRKTSRYRSSRPNRQL [L18S] yielded a protein stability index of 2.42. ERDFPCPVCRKTSRYRSVRPNRQL [L18V] gave a protein stability index of 2.49. For ERDFPCPVCRKTSRYRSCRPNRQL [L18C], the protein stability index was 2.24. ERDFPCPVCRKTSRYRSRRPNRQL [L18R] gave a protein stability index of 2.87. For ERDFPCPVCRKTSRYRSQRPNRQL [L18Q], the protein stability index was 2.39. With ERDFPCPVCRKTSRYRSYRPNRQL [L18Y] the protein stability index was 1.96. For ERDFPCPVCRKTSRYRSERPNRQL [L18E], the protein stability index was 2.1. Variant ERDFPCPVCRKTSRYRSMRPNRQL [L18M] has a protein stability index of 1.82. In the case of ERDFPCPVCRKTSRYRSTRPNRQL [L18T], the protein stability index is reported as 3.13.

Reference: the supplement of paper PMC10567573
